± gives the uncertainty stated by the source.
Experiment: amyloid nucleation score (Sup35N fusion, yeast selection) (log enrichment); library NNK2; higher = more nucleation; inactive = no reads after selection
How it was run: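 The nucleation score is the log enrichment of output over input reads, calculated with DiMSum and centred on the mode score of non-aggregating sequences. Sequences with under 100 input reads were excluded. Reads came from Illumina sequencing of plasmid inserts from psi-negative yeast expressing Sup35N fused to peptides of 20 random codons, induced 24 hours with 100 μM copper sulfate and grown 7 days at 30°C without adenine and uracil.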

Row | Substance | amyloid nucleation score
1 | HNITLLQLNCKWLKMVYEWT | 9.366 ± 0.061
2 | TGRFLEVREQRRDARVEMSR | 0.183 ± 1
3 | VGPPEIWVEFFAV | -0.813 ± 1.1
4 | YVQRNNARVTLGGTHSFRSV | 3.83 ± 0.068
5 | RFPVGRLFWQEFRYSDQGVA | 1.17 ± 0.23
6 | IRSMACDIPGV | -0.255 ± 0.65
7 | LMFARTMRSVRRFFYVGFHH | inactive
8 | ISYKAWMFRGRMNSVGISRY | -0.299 ± 0.63
9 | SSGGGYWLLWVE | -0.559 ± 0.76
10 | SLDGGPAVVEEATFRGSMAF | -0.567 ± 1.1
11 | TICSHKRKYNWMIGWRMSTF | 0.142 ± 0.45
12 | HSPYRFKSKCQRINMFCVIT | 5.713 ± 0.047
13 | CIMCGALEIGFGIIRGWEDF | 9.421 ± 0.067
14 | LAFGHVSVS | 0.086 ± 0.55
15 | CVVVRSCI | -0.342 ± 1.1
16 | STGMRGKYVTFFCSSVIFRQ | 7.2 ± 0.06
17 | WISIRSTNRRKLRHRSYATV | 0.56 ± 0.56
18 | LVGKFNWCEVQKKCSRFRCR | -0.29 ± 0.62
19 | YRLNVNKSSNQGV | -0.712 ± 0.45
20 | ISCNKIIDIKMWGWVCAIA | 8.729 ± 0.035
21 | VFWITAQMYY | 2.18 ± 0.076
22 | SIGVSDGNPGRAVGGGLMGH | 0.098 ± 0.49

Row | Substance | amyloid nucleation score
23 | IRMLLYCMESELKGASVEAG | -0.037 ± 0.5
24 | ALVCLMKSSFCTCEHLYDVR | 7.168 ± 0.044
25 | AGSSS | -0.561 ± 0.63
26 | VSAKVFSGGKESVMMCWPPL | 1.58 ± 0.41
27 | APFDMVGVTVLDSPVMYTNA | 0.512 ± 0.43
28 | MLFSRFRNICG | -0.08 ± 1
29 | KLCLGIGCRRQDTQAFGPPL | 5.65 ± 0.083
30 | FVESVSEPALCIFKVSGYCS | -0.685 ± 0.79
31 | VPCRSPVSGASKRTYLLINV | 0.045 ± 0.31
32 | PPCYALDRFLSGSLTVLSPV | -0.36 ± 0.35
33 | LGSAYSGKPHVFCS | inactive
34 | CKRSTH | -0.461 ± 0.49
35 | LDWPDLENQAVVVNTWVSE | 0.279 ± 0.5
36 | EHTFLFA | -0.297 ± 1.1
37 | RPLLKRKESM | 0.573 ± 0.28
38 | YCGLFKGYVYRL | -1.43 ± 0.55
39 | SRTRCDIWFNLRTFMVRVRK | -0.46 ± 1.1
40 | QEALLWTLNTLKKLSGRGST | -1.44 ± 0.55
41 | SGEGRLLVRWALVKVTEEKL | 0.907 ± 0.58
42 | IILFTIARDLSRVGFRFLMA | -0.545 ± 0.56
43 | VFIRAGIVFQFWCNG | 7.22 ± 0.043
44 | KMDSRSKTMRWYSCGSD | 1.53 ± 0.26

Row | Substance | amyloid nucleation score
45 | LYEMDSKC | -0.603 ± 1.1
46 | RGYACCL | -0.574 ± 0.48
47 | TGRITVRRGSHLSLWKSMRL | 0.697 ± 0.27
48 | NGRIICNESMSLYKSEV | 0.842 ± 0.8
49 | KFYYVTGDATLNRDLWGSRA | -0.79 ± 0.34
50 | DMAKGVLRSLFGTA | -0.154 ± 0.36
51 | WELKAHVDV | 0.737 ± 0.54
52 | GYDLYLTEWRSVFTAVIANE | -0.055 ± 1.1
53 | DIDGWCTIYMDIVYMKTCPY | 0.262 ± 0.56
54 | CNLSSCGHSFINLSYEDLCQ | inactive
55 | MGRTHRTTTPGSRFYTSTAF | -0.57 ± 1
56 | YCTNFYVEAGAIGS | -0.682 ± 0.42
57 | RWHLFSITYLKVLDWDCCLW | 5.45 ± 0.034
58 | SLADS | -0.802 ± 0.63
59 | SRKFSFAYFTRFFYVLVLIV | inactive
60 | VLDSINVSVCSWRVSCVTWL | 7.709 ± 0.033
61 | EALYALLSGGASNLKSHRLL | 0.26 ± 0.65
62 | NYWCMVV | 5.24 ± 0.075
63 | YLGTF | 0.187 ± 0.56
64 | GDHRFMSVVYVFYQSLNGVV | 3.41 ± 0.049
65 | NTTQAV | -0.249 ± 1
66 | IRLTSAYLHSDVWGVMQWNK | 4.823 ± 0.041

Row | Substance | amyloid nucleation score
67 | TYADW | 0.902 ± 0.3
68 | YYMKVVMVDTQTQV | inactive
69 | LCGWHD | 0.733 ± 0.47
70 | VVYASRLC | 0.681 ± 0.35
71 | SCYLALKFTFRLFVLKSEGL | -0.202 ± 1
72 | QKFVLSRPDLDRFYCSMDCM | -0.185 ± 0.63
73 | HFKSSKECSKWVGICREEGR | 0.338 ± 0.46
74 | DGYMMGALQNYCNCTRFVLN | inactive
75 | FFDSSCIFITHLL | 1.77 ± 0.18
76 | FVLCLDLHDESQERWETIRR | 0.925 ± 0.67
77 | MRHRCGHKKVSGV | 1.27 ± 0.49
78 | LVNNGINPPFGPSSLSRGMK | -0.31 ± 0.4
79 | IAIKM | 3.25 ± 0.08
80 | RYSITGTYYIA | 3.63 ± 0.057
81 | LILNIRTTGCGYFC | 8.818 ± 0.049
82 | IVCDVLNWPYFVAMAF | 0.25 ± 0.8
83 | GPCSSGSDSTCQMPCLAWPG | 0.74 ± 0.51
84 | HSMSKDLGWFHPNVNRFGFF | inactive
85 | YATKFN | 0.058 ± 0.79
86 | CISVPMIFDFTIWA | 6.64 ± 0.071
